Reference: patent US20220073643A1 (NANJING GENSCRIPT BIOTECH, published 2022)

Molecular target: human Claudin18.2 (human)
Test: cell-based or functional assay

Binder	CDC % Relative activity	CDC EC50
234B9D4 (antibody, V domains shown) VH: EIQLQQSGPDLMKPGSSVKISCTASGYSFTSYYIHWVKQSHGKTLEWIGYIDPFNGGTRYNQKFEGKAALTVDKSSTTAYMHLTSLTSDDSAVYYCASLRFFTYWGQGTLVTVSA VL: DIVMTQSPSSLTVTAGEKVTMTCKSSQSLLNSGNQENYLTWYQQKPGQPPKLLISRASTRQSGVPDRFTGSGSGTDFTLTISSVQAEDLAVYYCQNDYSYPLTFGAGTKLELK	485%	0.287 mg/L
186F7E10 (antibody, V domains shown) VH: EVMLVESGGGLVKPGGSLKLSCAASRFTLNSYAMSWIRQTPEKKLEWVATITSGVSHTYYFDSVKGRFTISRDTAKNTLNLQMNSLRSEDTAVYYCARLYYGNSLDYWGQGTSVTVSS VL: DIVMTQSPSSLTVTAGEKVTVSCKSSQSLLNSGNQKNYLTWYQQKPGQPPKLLIYWASTRESGVPDRFTGSGSGTDFTLTISSVQSEDLAVYYCQNNYIYPLTFGAGTTLELK	124%	1.27 mg/L
242F5H2 (antibody, V domains shown) VH: EVMLVESGGGLVKPGGSLKLSCAASGFTFSSYTVSWVRQTPEKRLEWVATSIVGSTYTYFPDSVKGRFTISRDFAKNTLFLQMSSLRSEDTAMYYCSRLGRGNAMDYWGQGTSVSVSS VL: DIVMTQSPSSLTVTAGEKVTLNCRSSQSLLNSGNQKNYLTWYQQKPGQPPKLLIYWASTRESGVPDRFTGSGSGTDFTLTISSVQADDLAVYYCQNGYSYPFTFGSGTKLEIK	149%	0.944 mg/L
246B5F2 (antibody, IgM, V domains shown) VH: EVMLVESGGGLMKPGGSLKLSCAASEFTFSNYAMSWVRQTPEKRLEWVATISSGRSSTYYPDSVKGRFTISRDNAKNTLYLQMSSLRSEDTAMYYCAGLGRGNAMEYWGQGTSVTVSS VL: DIVMTQSPSSLTVTAGEKVTLSCKSSQSLLNSGNQKNYLTWYQQKPGQPPKLLIYWASTRESGVPDRFTGSGSGTDFILTINSVQAEDLAVYYCQNAYSYPFTFGSGTKLEIK	787%	0.179 mg/L
233D5E5 (antibody, V domains shown) VH: QAYLQQSGAELVRSGASVKMSCKASGYTFTSHNMHWVKQTPRQGLEWIGYIYPGNGDTNYNQKFKGKATLTADTSSSTAYMQISSLTSEDSAVYFCTRDYYGNSFAYWGQGTLVTVSA VL: DIVMTQSPSSLTEKAGERVSMSCKSSQSLFNSGNQKNYLTWYQQKPGQPPKLLIYWASTRESGVPDRFTGSGSGTDFTLTISSVQAEDLAVYYCQNAYWYPFTFGAGTKLELK	87.3%	1.49 mg/L
240A8E7 (antibody, V domains shown) VH: QAYLQQSGAELVRSGASVKMSCKASGYTFTNYNIHWVKQTPGQGLEWIGYIYPGNGDNYYNQKFKGKATLTADTSSSTAYMQISSLTSEDSAVYFCARDYYGNSFAYWGQGTLVTVSA VL: DVVMTQSPSSLTVTAGEKVTMNCKSSQSLLNSGNQKNYLTWYQQKPGQPPKMLIYWASTRESGVPDRFTGSGSGTDFTLTISSVQAEDLAIYYCQNDYYYPFTFGAGTKLELK	120%	1.16 mg/L
241H10A1 (antibody, V domains shown) VH: QVQLQQSGAELVKPGASVKLSCKASGYTFTSFGINWLRQRPEQGLEWIGWIFPGDGNSKYNENFKGKATLTTDKSSSTAYMQVTRLTSEDSAVYFCARFYYGNSFANWGQGTLVTVSA VL: DIVMTQSPSSLTVTAGEKVTMSCKSSQSLLNSGNQKNYLTWYQQKPGQPPKLLIYWAATRESGVPDRFTGSGSGTDFTLTISSVQAEDLAVYYCQNDYFYPFTFGGGTKLELK	625%	0.225 mg/L
243F6D2 (antibody, V domains shown) VH: QAYLQQSGAELVRSGASVKMSCRASGYTFTSHNMHWVKQTPGQGLEWIGYIYPGNGGTYYNQKFKGKATLTADTSSSTAYMQISSLTSEDSAVYFCARDYYGNSFVYWGQGTLVTVSA VL: DVVMTQSPSSLTEKTGEKVSMSCKSSQSLLNSGNQKNYLTWYQQKPGQPPKLLIYWASTRESGVPDRFTGSGSGTDFTLTISSLQTEDLAVYYCQNNYRYPFTFGAGTKLELK	70.5%	2 mg/L
240D6F5 (antibody, V domains shown) VH: QAYLQQSGAELVRSGASVKMSCKASGYTFTSHNMHWVKQTPGQGLEWIGYIYPGNGGTNYNQKFKGKATLTADPSSSTAYMQINSLTSEDSAVYFCTRDYYGNSFAYWGQGTLVTVSA VL: DIVMTQSPSSLTEKAGERVSMSCKSSQSLFNSGNQKNYLTWYQQKPGQPPKLLIYWASTRESGVPDRFTGSGSGTDFTLTISSVQAEDLAVYYCQNDYRYPFTFGAGTKLELK	119%	1.17 mg/L
235A10C9 (antibody, V domains shown) VH: QAYLQQSGAELVRSGASVKMSCKASGYTFASHNMHWVKQTPGQGLEWIGYIYPGNSGTKYNQKFTGKATLTADTSSSTAYMQITSLTSEDSAVYFCARDYYGNSFAYWGQGTLVTVSA VL: DIVMTQSPSSLTEKAGEKVSMRCKSSQSLLNSGNQKNYLTWYQQKPGQPPKLLIYWASTRESGVPDRFTGSGSGTDFTLTISSVQADDLAVYYCQNDYMFPFTFGAGTKLELK	137%	1.01 mg/L
244A1B8 (antibody, V domains shown) VH: QAYLQQSGAELVRSGASVKMSCKASGYTFTSHNIHWVKQTPGQGLEWIGYIYPGNGAPNYNQKFRGKATLTADTSSSTAYMQISSLTSEDSAVYFCARDYYGNSFVYWGQGTLVTVSA VL: DIVMTQSPSSLTEKAGEKVSMSCKSSQSLLNSGNQKNYLTWYQQKPGQPPKLLIYWASTRESGVPDRFTGSGSGTDFTLTISSVQAEDLAVYYCQNDYRYPFTFGAGTKLELK	102%	1.39 mg/L
242H12D6 (antibody, V domains shown) VH: QAYLQQSGAELVRSGASVKMSCKASGYTFTSHNMHWVKQTPGQGLEWIGYIYPGNGGTNYNQKFKGKATLTADTSSSTAYMQINSLTSEDSAVYFCTRDYYGNSFAYWGQGTLVTVSA VL: DIVMTQSPSSLTEKAGERVSMSCKSSQSLFNSGNQKNYLTWYQQKPGQPPKLLIYWASTRESGVPDRFTGSGSGTDFTLTISSVQAEDLAVYYCQNDYRYPFTFGAGTKLELK	112%	1.26 mg/L
243B4F2 (antibody, V domains shown) VH: QAYLQQSGAELVRSGASVKMSCKASGYTFTSHNLHWVKQTPGQGLEWIGYIYPGNGNTNYNQKFKGKATLTADTSSSTAYMQISSLTSEDSAVYFCTRDYYGNSFAYWGQGTLVTVSA VL: DIVMTQSPSSLTEKAGERVSMSCKSSQSLFNSGNQKNYLTWYQQKPGQPPKLLIYWASTRESGVPDRFTGSGSGTDFTLTISSVQAEDLAVYYCQNNYWFPFTFGAGTKLELK	134%	1.05 mg/L
234E1F12 (antibody, V domains shown) VH: QAYLQQSGAELVRSGASVKMSCKASGYTFTSHNMHWVKQTPRQGLEWIGYIYPGNGDTNYNQKFKGKATLTADTSSSTAYMQISSLTSEDSAVYFCTRDYYGNSFAYWGQGTLVTVSA VL: DIVMTQSPSSLTEKAGERVSMSCKSSQSLFNSGNQKNYLTWYQQKPGQPPKLLIYWASTRESGVPDRFTGSGSGTDFTLTISSVQAEDLAVYYCQNAYWYPFTFGAGTKLELK	126%	1.1 mg/L
240F8G2 (antibody, V domains shown) VH: QAYLQQSGAELVRSGASVKMSCKASGYTFTNYNIHWVKQTPGQGLEWIGYIYPGNGGNYYNQKFKGKATLTADTSSSTAYMQISSLTSEDSAVYFCARDYYGNSFAYWGQGTLVTVSA VL: DIVVTQSPSSLTVTAGEKVTMNCKSSQSLLNSGNQKNYLTWYQQKPGQPPKLLIYWASTRESGVPDRFTGSGSGTDFTLTISSVQAEDLAIYYCQNDYYYPLTFGAGTKLELK	126%	1.1 mg/L
243B4F7 (antibody, V domains shown) VH: QAYLQQSGAELVRSGASVKMSCKASGYTFTSHNLHWVKQTPGQGLEWIGYIYPGNGNTNYNQKFKGKATLTADTSSSTAYMQISSLTSEDSAVYFCTRDYYGNSFAYWGQGTLVTVSA VL: DIVMTQSPSSLTEKAGERVSMSCKSSQSLFNSGNQKNYLTWYQQKPGQPPKLLIYWASTRESGVPDRFTGSGSGTDFTLTISSVQAEDLAVYYCQNNYWFPFTFGAGTKLELK	149%	0.941 mg/L
237D2A4 (antibody, V domains shown) VH: QVQLKESGPGLVAPSQSLSITCTVSGFSLTSYGVSWVRQPPGKGLEWLGVIWGDGSTNYHSTLISRLRISKDKSKSQVFLKLNSLQTDDTATYYCAKAGRGNALDYWGQGTSVTVSS VL: DIVMTQSPSSLTVTAGEKVTMSCKSSQSLLNSGNQKNYLTWYQQKPGQPPKLLIYWASTRESGVPDRFTGSGSGTDFTLTISSVQAEDLAVYYCQNDYSFPLTFGAGTKLELK	629%	0.221 mg/L
234A10F7 (antibody, V domains shown) VH: QVQLQQSGAELVKPGASVKLSCKASGYTFTSFGINWLRQRPEQGLEWIGWIFPGDGNSKYNENFKGKATLTTDKSSSTAYMQLTRLTSEDSAVYFCARFYYGNSFAYWGQGTLVTVSA VL: DIVMTQSPSSLTVTTGQKVTMSCKSSQSLLNSGNQKNYLTWYQQKPGQPPKLLIYWAATRESGVPDRFTGSGSGTDFTLTISSVQAEDLAVYYCQNDYFYPFTFGAGTKLELK	62%	2.1 mg/L
239H12G9 (antibody, V domains shown) VH: QAYLQQSGAELVRSGASVKMSCKASGYTFTSHNIHWVKQTPGQGLEWIGYIYPGNGAPNYNQKFRGKATLTADTSSSTAYMQISSLTSEDSAVYFCARDYYGNSFVYWGQGTLVTVSA VL: DIVMTQSPSSLTEKAGEKVSMSCKSSQSLLNSGNQKNYLTWYQQKPGQPPKLLIYWASTRESGVPDRFTGSGSGTDFTLTISSVQAEDLAVYYCQNDYRYPFTFGAGTKLELK	102%	1.36 mg/L
234C9G5 (antibody, V domains shown) VH: QAYLQQSGAELVRSGASVKMSCKASGYAFTSHNMHWVKQTPGQGLEWIGYISPGNGYTNYNQKFRGKATLTADTSSSTAYMQIGSLTSEDSAVYFCTRDYYGNSFAYWGQGTLVTVSA VL: DIVMTQSPSSLTEKAGERVSMSCKSSQSLFNSGNQKNYLTWYQQKPGQPPKLLIYWASTRESGVPDRFTGSGSGTDFTLTISSVQAEDLAVYYCQNNYWFPFTFGAGTKLELK	175%	0.794 mg/L
